Here are results for 3 molecules from paper PMC8867190, “Ultrasensitive DNA‐Biomacromolecule Sensor for the Detection Application of Clinical Cancer Samples”.

In one series the target is Nucleolin (NCL) (UniProt P19338 2-710). In words: electrochemical strand displacement (SWV); 100 nM NCL; signal gain 357.19%; 10 mM phosphate buffer, 1 M NaCl, pH 7.4, room temperature; 30 nM aptamer/signal duplex (prepared in 20 mM Tris, 50 mM MgCl2, pH 8.0, diluted 60 uL into 1940 uL PBS). The note with it: protein: commercial; assayed prehybridized with NCL-SP S10 (3'-MB), displaced by target; printed S10 only partly complementary.
Sequence of Nucleolin (NCL) (P19338 2-710): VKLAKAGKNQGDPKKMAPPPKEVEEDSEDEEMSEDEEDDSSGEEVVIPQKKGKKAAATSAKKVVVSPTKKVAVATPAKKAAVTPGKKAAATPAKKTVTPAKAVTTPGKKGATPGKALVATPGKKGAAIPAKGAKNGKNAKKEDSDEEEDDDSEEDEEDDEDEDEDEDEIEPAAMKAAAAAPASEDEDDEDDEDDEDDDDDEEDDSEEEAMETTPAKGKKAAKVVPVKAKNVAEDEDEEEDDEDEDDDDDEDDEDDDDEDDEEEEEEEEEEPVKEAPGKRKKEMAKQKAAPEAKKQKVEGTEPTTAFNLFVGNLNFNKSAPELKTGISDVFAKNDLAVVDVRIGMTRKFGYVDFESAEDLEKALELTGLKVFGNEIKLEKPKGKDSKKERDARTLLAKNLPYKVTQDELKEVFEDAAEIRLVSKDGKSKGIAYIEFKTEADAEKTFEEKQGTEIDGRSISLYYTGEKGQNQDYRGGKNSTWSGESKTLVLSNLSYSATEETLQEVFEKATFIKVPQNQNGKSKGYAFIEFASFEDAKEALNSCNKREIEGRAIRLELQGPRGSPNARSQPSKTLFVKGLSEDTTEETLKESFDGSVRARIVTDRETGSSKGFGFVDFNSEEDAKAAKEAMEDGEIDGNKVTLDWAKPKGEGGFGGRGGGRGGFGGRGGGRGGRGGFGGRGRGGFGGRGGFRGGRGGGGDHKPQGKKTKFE

In another series the target is Luteinizing hormone (LH) (UniProt P01215;P01229 25-116;21-141). Briefly: electrochemical strand displacement (SWV); 10 pM-10 uM LH; detection limit 10 pM (not a Kd); displaces signal probe; 10 mM phosphate buffer, 1 M NaCl, pH 7.4, room temperature; 30 nM aptamer/signal duplex (prepared in 20 mM Tris, 50 mM MgCl2, pH 8.0, diluted 60 uL into 1940 uL PBS). To be noted: protein: commercial; copies: 1;1; assayed prehybridized 1:1 with signal probe S3 (3'-MB), complementary to aptamer nt 1-15; S3 is displaced by target; G-quadruplex predicted.
Sequence of Luteinizing hormone (LH) (P01215 25-116, chain 1 of 2): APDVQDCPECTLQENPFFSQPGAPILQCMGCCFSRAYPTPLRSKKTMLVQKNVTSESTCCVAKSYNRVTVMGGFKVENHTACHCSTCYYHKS
Sequence of Luteinizing hormone (LH) (P01229 21-141, chain 2 of 2): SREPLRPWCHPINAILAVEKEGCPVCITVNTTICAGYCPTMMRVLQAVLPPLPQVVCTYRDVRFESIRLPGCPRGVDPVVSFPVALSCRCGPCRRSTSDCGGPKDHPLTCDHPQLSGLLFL

Series [1] deals with Neutrophil gelatinase-associated lipocalin (NGAL) (UniProt P80188 21-198). Briefly: electrochemical strand displacement (SWV); 100 nM NGAL; signal gain 200.85%; 10 mM phosphate buffer, 1 M NaCl, pH 7.4, room temperature; 30 nM aptamer/signal duplex (prepared in 20 mM Tris, 50 mM MgCl2, pH 8.0, diluted 60 uL into 1940 uL PBS). To be noted: protein: commercial; assayed prehybridized with NGAL-SP S7 (3'-MB), displaced by target; printed S7 only partly complementary.
Sequence of Neutrophil gelatinase-associated lipocalin (NGAL) (P80188 21-198): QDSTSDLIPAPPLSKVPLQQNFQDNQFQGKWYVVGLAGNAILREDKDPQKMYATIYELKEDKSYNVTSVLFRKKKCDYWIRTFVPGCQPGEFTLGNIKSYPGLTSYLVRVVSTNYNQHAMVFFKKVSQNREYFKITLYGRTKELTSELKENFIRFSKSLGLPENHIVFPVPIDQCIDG

GGTGGTGGTGGTTGTGGTGGTGGTGGTTTTTT (ssDNA) [Nucleolin aptamer]: the binding result in the series with Nucleolin (NCL) was “binds”. For the molecule TATGGTATGCTGTGTGGTATGGGGTGGCGTGCTCT (structured_DNA) [LH aptamer], in the series with Luteinizing hormone (LH), the binding result was “binds”.

B1: NGAL aptamer (ssDNA)
DNA: AGCAGCACAGAGGTCAGATGGCGCTGGATAGCAAGATCACGTTATCATCGTAAACCCTATGCGTGCTACCGTGAA
On to B1, for which, in series [1], the binding result is on record as “binds”.
